The chains are these.
B1: Receptor-interacting serine/threonine-protein kinase 2, residues 438 to 518; numbered along this chain, O43353 (parent)
chain: QWIQSKREDIVNQMTEACLNQSLDALLSRDLIMKEDYELVSTKPTRTSKVRQLLDTTDIQGEEFAKVIVQKLKDNKQMGLQ

± gives the uncertainty stated by the source.

Variants of B1 are the subject of this data set. The data set is described as follows: abundance fitness (aPCA) (normalised: wild type 0, dead -1); higher = more abundant; growth selection in yeast, the domain comes from the species named. Conditions: Homo sapiens.
For QWIQSKREDILNQMTEACLNQSLDALLSRDLIMKEDYELVSTKPTRTSKVRQLLDTTDIQGEEFAKVIVQKLKDNKQMGLQ [V11L], the abundance fitness was -0.373 ± 0.074.

Regarding QWIQSKREDIPNQMTEACLNQSLDALLSRDLIMKEDYELVSTKPTRTSKVRQLLDTTDIQGEEFAKVIVQKLKDNKQMGLQ [V11P], the abundance fitness was -0.503 ± 0.087.

Regarding QWIQSKREDIENQMTEACLNQSLDALLSRDLIMKEDYELVSTKPTRTSKVRQLLDTTDIQGEEFAKVIVQKLKDNKQMGLQ [V11E], the abundance fitness is -0.376 ± 0.11.

As to QWIQSKREDIWNQMTEACLNQSLDALLSRDLIMKEDYELVSTKPTRTSKVRQLLDTTDIQGEEFAKVIVQKLKDNKQMGLQ [V11W], the abundance fitness was -1.03 ± 0.21.

On to QWIQSKREDIMNQMTEACLNQSLDALLSRDLIMKEDYELVSTKPTRTSKVRQLLDTTDIQGEEFAKVIVQKLKDNKQMGLQ [V11M], for which the abundance fitness is -0.099 ± 0.15.

QWIQSKREDIANQMTEACLNQSLDALLSRDLIMKEDYELVSTKPTRTSKVRQLLDTTDIQGEEFAKVIVQKLKDNKQMGLQ [V11A]: the abundance fitness was -0.49 ± 0.075. For the variant QWIQSKREDIVNGMTEACLNQSLDALLSRDLIMKEDYELVSTKPTRTSKVRQLLDTTDIQGEEFAKVIVQKLKDNKQMGLQ [Q13G], the abundance fitness was -0.365 ± 0.13. For the variant QWIQSKREDIVNVMTEACLNQSLDALLSRDLIMKEDYELVSTKPTRTSKVRQLLDTTDIQGEEFAKVIVQKLKDNKQMGLQ [Q13V], the abundance fitness is -0.199 ± 0.23.

Turning to QWIQSKREDIVNLMTEACLNQSLDALLSRDLIMKEDYELVSTKPTRTSKVRQLLDTTDIQGEEFAKVIVQKLKDNKQMGLQ [Q13L], the abundance fitness was -0.541 ± 0.16.

Regarding QWIQSKREDIVNMMTEACLNQSLDALLSRDLIMKEDYELVSTKPTRTSKVRQLLDTTDIQGEEFAKVIVQKLKDNKQMGLQ [Q13M], the abundance fitness was -0.369 ± 0.48. To QWIQSKREDIVNSMTEACLNQSLDALLSRDLIMKEDYELVSTKPTRTSKVRQLLDTTDIQGEEFAKVIVQKLKDNKQMGLQ [Q13S] belongs 0.072 ± 0.16; to QWIQSKREDIVNTMTEACLNQSLDALLSRDLIMKEDYELVSTKPTRTSKVRQLLDTTDIQGEEFAKVIVQKLKDNKQMGLQ [Q13T], -0.19 ± 0.28; to QWIQSKREDIVNEMTEACLNQSLDALLSRDLIMKEDYELVSTKPTRTSKVRQLLDTTDIQGEEFAKVIVQKLKDNKQMGLQ [Q13E], -0.027 ± 0.27.

Consider QWIQSKREDIVNAMTEACLNQSLDALLSRDLIMKEDYELVSTKPTRTSKVRQLLDTTDIQGEEFAKVIVQKLKDNKQMGLQ [Q13A], for which the abundance fitness was 0.032 ± 0.19. Turning to QWIQSKREDIVNRMTEACLNQSLDALLSRDLIMKEDYELVSTKPTRTSKVRQLLDTTDIQGEEFAKVIVQKLKDNKQMGLQ [Q13R], the abundance fitness is -0.527 ± 0.18. Turning to QWIQSKREDIVNFMTEACLNQSLDALLSRDLIMKEDYELVSTKPTRTSKVRQLLDTTDIQGEEFAKVIVQKLKDNKQMGLQ [Q13F], the abundance fitness was -0.314 ± 0.45. To QWIQSKREDIVVQMTEACLNQSLDALLSRDLIMKEDYELVSTKPTRTSKVRQLLDTTDIQGEEFAKVIVQKLKDNKQMGLQ [N12V] belongs -0.374 ± 0.086.

QWIQSKREDIVLQMTEACLNQSLDALLSRDLIMKEDYELVSTKPTRTSKVRQLLDTTDIQGEEFAKVIVQKLKDNKQMGLQ [N12L]: the abundance fitness is -0.068 ± 0.059. To QWIQSKREDIVMQMTEACLNQSLDALLSRDLIMKEDYELVSTKPTRTSKVRQLLDTTDIQGEEFAKVIVQKLKDNKQMGLQ [N12M] belongs -0.002 ± 0.19; to QWIQSKREDIVWQMTEACLNQSLDALLSRDLIMKEDYELVSTKPTRTSKVRQLLDTTDIQGEEFAKVIVQKLKDNKQMGLQ [N12W], -0.829 ± 0.19.

As to QWIQSKREDIVQQMTEACLNQSLDALLSRDLIMKEDYELVSTKPTRTSKVRQLLDTTDIQGEEFAKVIVQKLKDNKQMGLQ [N12Q], the abundance fitness was -0.248 ± 0.23. With QWIQSKREDIVKQMTEACLNQSLDALLSRDLIMKEDYELVSTKPTRTSKVRQLLDTTDIQGEEFAKVIVQKLKDNKQMGLQ [N12K], the abundance fitness is -0.039 ± 0.15. As for QWIQSKREDIVYQMTEACLNQSLDALLSRDLIMKEDYELVSTKPTRTSKVRQLLDTTDIQGEEFAKVIVQKLKDNKQMGLQ [N12Y], the abundance fitness was -0.382 ± 0.4. For QWIQSKREDIVCQMTEACLNQSLDALLSRDLIMKEDYELVSTKPTRTSKVRQLLDTTDIQGEEFAKVIVQKLKDNKQMGLQ [N12C], the abundance fitness was -0.028 ± 0.1.

QWIQSKREDIVGQMTEACLNQSLDALLSRDLIMKEDYELVSTKPTRTSKVRQLLDTTDIQGEEFAKVIVQKLKDNKQMGLQ [N12G]: the abundance fitness is -0.162 ± 0.065. To QWIQSKREDIVSQMTEACLNQSLDALLSRDLIMKEDYELVSTKPTRTSKVRQLLDTTDIQGEEFAKVIVQKLKDNKQMGLQ [N12S] belongs -0.213 ± 0.071. Regarding QWIQSKREDIVHQMTEACLNQSLDALLSRDLIMKEDYELVSTKPTRTSKVRQLLDTTDIQGEEFAKVIVQKLKDNKQMGLQ [N12H], the abundance fitness is -0.108 ± 0.11. Take QWIQSKREDIVIQMTEACLNQSLDALLSRDLIMKEDYELVSTKPTRTSKVRQLLDTTDIQGEEFAKVIVQKLKDNKQMGLQ [N12I]: the abundance fitness was -0.486 ± 0.21.

As for QWIQSKREDIVDQMTEACLNQSLDALLSRDLIMKEDYELVSTKPTRTSKVRQLLDTTDIQGEEFAKVIVQKLKDNKQMGLQ [N12D], the abundance fitness was -0.089 ± 0.14.

In the case of QWIQSKREDIVRQMTEACLNQSLDALLSRDLIMKEDYELVSTKPTRTSKVRQLLDTTDIQGEEFAKVIVQKLKDNKQMGLQ [N12R], the abundance fitness is -0.008 ± 0.059. In the case of QWIQSKREDIVEQMTEACLNQSLDALLSRDLIMKEDYELVSTKPTRTSKVRQLLDTTDIQGEEFAKVIVQKLKDNKQMGLQ [N12E], the abundance fitness was 0.199 ± 0.21. To QWIQSKREDIVPQMTEACLNQSLDALLSRDLIMKEDYELVSTKPTRTSKVRQLLDTTDIQGEEFAKVIVQKLKDNKQMGLQ [N12P] belongs -0.978 ± 0.23. To QWIQSKREDIVAQMTEACLNQSLDALLSRDLIMKEDYELVSTKPTRTSKVRQLLDTTDIQGEEFAKVIVQKLKDNKQMGLQ [N12A] belongs 0.073 ± 0.093; to QWIQSKREDIVFQMTEACLNQSLDALLSRDLIMKEDYELVSTKPTRTSKVRQLLDTTDIQGEEFAKVIVQKLKDNKQMGLQ [N12F], -0.62 ± 0.16.

(Values after the Human Domainome abundance scans (Beltran et al. 2025).)
